From the nanobody polyreactivity screen of Harvey et al. (2022)

Assay: yeast display, Sf9 membrane polyspecificity reagent, FACS + sequencing; frameworks hold sequencing errors
In short: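 Using colony PCR, genes from sorted yeast display clones were amplified, then sequenced on MiSeq at 2 × 250 and filtered by CDR length. The clones had been stained with 10% biotinylated, detergent-solubilized Sf9 membrane reagent for 1 hour at 4 °C and sorted by FACS into low and high (top ~1%) gates on anti-HA and streptavidin fluorescence. Polyreactivity labels come from the gate of origin.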
In the case of “QVQLVESGGGLVQAGGSLRLSCAASGSIIDRYAMGWYRQAPGKERELVAAISYSGGRTYYADSVKGRFTISRDNAKNTVYLQMNSLKPEDTAVYYCAADSPYDEYDYWGQGTQVTVSS”, the “polyreactivity (PSR sort gate)” value is reported as “high polyreactivity”. In the case of “QVQLVESGGGLVQAGGSLRLSCAASGSIIFLYAMGWYRQAPGKERELVASISTSGTTITYYADSVKGRFTISRDNAQNTGYLQMNSLKPEDTAVYYCAAEAYGNRDYWGQGTQVTVSS”, the “polyreactivity (PSR sort gate)” value is reported as “low polyreactivity”. For “QVQLVESGGGLVQAGGSLRLSCAASGSIIGFYVMGWYRQAPGKERELVAGISDSGGRTYYADSVKGRFTISRDNAKNTVYLQMNSLKPEDTAVYYCAAEAYKHGVWDYDYWGQGTQVTVSS”, the “polyreactivity (PSR sort gate)” value was “low polyreactivity”. With “QVQLVESGGGLVQAGGSLRLSCAASGSIIGPYAMGWYRQAHGKERELVAAITFSGGSTYYADSVKGRFTISRDNSKNTVYLQMNSLKPEDTAVYYCAAEYWYYTGYDYWGQGTQVTVSS” the “polyreactivity (PSR sort gate)” value was “high polyreactivity”. In the case of “QVQLVESGGGLVQAGGSLRLSCAASGSIIKRNAMGWYRQAPGKERELVASISSGDGSTNYADSVKGRFTISRDNAKNTVYLQMNSLKPEDTAVYYCNAPFWGYRTSFSYPVVQRFDYWGQGTQVTVSS”, the “polyreactivity (PSR sort gate)” value is reported as “low polyreactivity”. For “QVQLVESGGGLVQAGGSLRLSCAASGSIIKRNDMGWYRQAPGKERELVASITWRGGRTYYADSVKGRFTISRDNAKNTVYLQMNSLTPEDTSVYYCATTQYPSHYDAYGYWGQGTQVTVSS”, the “polyreactivity (PSR sort gate)” value was “high polyreactivity”. With “QVQLVESGGGLVQAGGSLRLSCAASGSIIKSYAMGWYRQAPGKGRELVAAISSGGSTNYADSVKGRFTISRDNAKNTVYLQMNSLKPEDTAVYYCAARFRVDHRPYYYWGQGTQVTVSS” the “polyreactivity (PSR sort gate)” value was “low polyreactivity”. With “QVQLVESGGGLVQAGGSLRLSCAASGSIIKVYAMGWYRQAPGKERELVAAITSDGSTYYADSVKGRFTISRDNAKNTVYLQLNSLKPVDTAVYYCAASVYYLYFHGKYDYWGQGTQVTVSS” the “polyreactivity (PSR sort gate)” value was “low polyreactivity”. For “QVQLVESGGGLVQAGGSLRLSCAASGSIIKYYAMGWYRQAPGKERELVAAISWRGGRTYADSVKGRFTISRDNAKNTVYLQLNSLKPEDTAVYYCNARAPQGYGTHRSKYRWGPMGYWGQGTQVTVSS”, the “polyreactivity (PSR sort gate)” value was “high polyreactivity”. In the case of “QVQLVESGGGLVQAGGSLRLSCAASGSIINFNAMGWYRQQPGKERELDARINQGGGSTYYADSVKGRFTISRDNAKNTVYLQMNSLKPEDTAVYYCAAVRYVLRSPARYGYWGQGTQVTVSS”, the “polyreactivity (PSR sort gate)” value is reported as “low polyreactivity”. For “QVQLVESGGGLVQAGGSLRLSCAASGSIIPYNAMGWYRQAPGKERYLVATISSGGSTNYADSVKGRFTISRDNAKNTVYLQMNSLKPEDTAVYYCAADVIVFYYAPNYWGDIEYGYWGQGTQVTVSS”, the “polyreactivity (PSR sort gate)” value was “low polyreactivity”. With “QVQLVESGGGLVQAGGSLRLSCAASGSIIRGNAMGWYRQAPGKERELVAAISGSGGSTYYADSVKGRFTISRDNAKNTVYLQMNSLKPEDTAVYYCAARYVTSIYAYYYWGQGTQVTVSS” the “polyreactivity (PSR sort gate)” value was “high polyreactivity”. For “QVQLVESGGGLVQAGGSLRLSCAASGSIIRGYTMGWYRQAPGKERELVADITQSTGSTYYADSVKGRFTISRDTAKNTVYFQMNSLKPEDTAVYYCAAVEGWYLFTSNYWGQGTQVNVSS”, the “polyreactivity (PSR sort gate)” value was “low polyreactivity”. For “QVQLVESGGGLVQAGGSLRLSCAASGSIIRTYAMGWYRQAPGKERQLVATITFGGVSTYNADSVKGRFTISRDNAKNTVYLQMNSLKPEDSAVYYCAADVYTRFWRVYRFDYWGQGTQVTVSS”, the “polyreactivity (PSR sort gate)” value was “low polyreactivity”. With “QVQLVESGGGLVQAGGSLRLSCAASGSIIRVNTMGWYRQAPGKERELVAGITSRGGSTYYADSVKGRFTISRDNAKNTVYLQMISLKPEDTAFYYCANRAYGTALYRGYGNWGQGTQVTVSS” the “polyreactivity (PSR sort gate)” value was “low polyreactivity”. In the case of “QVQLVESGGGLVQAGGSLRLSCAASGSIISGYAMGWYRQAPGKERELVASISSSGGRTYYAYSVKGRYTISRDNAKNTVYLPRNSLKPEDTAVYYCNVKSYTYGYLPYDYWGQGTQVTVSS”, the “polyreactivity (PSR sort gate)” value is reported as “high polyreactivity”. For “QVQLVESGGGLVQAGGSLRLSCAASGSIISNYVMGWYRPAPGKERELVAAITRRGGRTYYADSVKGRFTISRDNAKNTVYLQMNSLKPEDTAVYYCAAERYPEAGSPYGTAEMDYWGQGTLVTVSS”, the “polyreactivity (PSR sort gate)” value was “high polyreactivity”. For “QVQLVESGGGLVQAGGSLRLSCAASGSIISSYTMGWYRQAPGKERELVAVITSGDSTNYADSVKGRFTISRDNAKNTVYLEMNSLKPEDTAVYYCNADYVKVFKLQFDYWGQGTQVTVSS”, the “polyreactivity (PSR sort gate)” value was “low polyreactivity”. With “QVQLVESGGGLVQAGGSLRLSCAASGSIITGYAMGWYRQAPVKERELVAGINSGTSTNYADSVKGRFTISRDNAKNTVSLQMNSLKPEDTAVYYCAKTAERRHYGVYRFDYWGQGTQVTVSS” the “polyreactivity (PSR sort gate)” value was “low polyreactivity”. For “QVQLVESGGGLVQAGGSLRLSCAASGSIIVGYAMGWYRQAPGKERELVAAISWSGGRTYYADSVKGRFTISRDNAKNTVYLQMNSLKPEDTAVYYCATVTKGSLRYNYNYWGQGTQVTVSS”, the “polyreactivity (PSR sort gate)” value was “high polyreactivity”. With “QVQLVESGGGLVQAGGSLRLSCAASGSIIVLNAMGWYRQAPGKERELVAAISSDGITYYADSVKGRFTISRDNAKNTVYLQKNSLKPEDTAVYYCAAYRVDYSDAYYYWGQGTQVTVSS” the “polyreactivity (PSR sort gate)” value was “low polyreactivity”. With “QVQLVESGGGLVQAGGSLRLSCAASGSIIVYYGMGWYRQAPGKERELVAAISSGGSTHYADSVKGRFTISRDNAKNSVYLQMNSVKPEDTAVYYCAADRFFWLRSYPRYYYWGQGTQVTVSS” the “polyreactivity (PSR sort gate)” value was “low polyreactivity”. With “QVQLVESGGGLVQAGGSLRLSCAASGSIIWLYAMGWYRQAPGKERELVAAISSGGSTYYADSVKGRFTISRDNAKNTVYLQMNSLKPEDTAVYYCAADYWSQSDWWDLTEYEYWGQGTQVTVSS” the “polyreactivity (PSR sort gate)” value was “high polyreactivity”. For “QVQLVESGGGLVQAGGSLRLSCAASGSIIYTNAMGWYRQAPGKERELVAAITGTTTTNYADSVKGRFTISRDNAKNTVYLQMNSLKPEDPAVYYCNADYDRSRVYYSVELYDYWGQGTQVTVSS”, the “polyreactivity (PSR sort gate)” value was “low polyreactivity”. In the case of “QVQLVESGGGLVQAGGSLRLSCAASGSILASNAMGWYRQAPGKDRELVAAITTSGGSTYYADSVKGRFTISRHNAKNTVYLQMNSLKPEDTAVYYCNAEYWLGRWLRYGYWGQGTQVTVSS”, the “polyreactivity (PSR sort gate)” value is reported as “high polyreactivity”. With “QVQLVESGGGLVQAGGSLRLSCAASGSILCLNAMGWYRQAPGKERELVADITRGGSTYYADSVKGRFTISRDNAKNTVYLQMNSLKPEDTAVNYCAADAYTGQIPYYYFEHYYWGQGTQVTVSS” the “polyreactivity (PSR sort gate)” value was “high polyreactivity”. In the case of “QVQLVESGGGLVQAGGSLRLSCAASGSILCTNAMGWYRQAPGKERELVAAITTSGASTYYADSVKGRFTISRANAKNSVYLPMNSLKPEDSAVYYCAAPSRYRYYWGNYWGQGTQVTVSS”, the “polyreactivity (PSR sort gate)” value is reported as “high polyreactivity”. For “QVQLVESGGGLVQAGGSLRLSCAASGSILDHYAMGRYRQAPGKEREFVAAISIRGGSTYYADSVKGRFTISRDNEKNTVYLHMNSLKPEDTAVYYCNALSNYVYRRNDYGGQGTQVTVSS”, the “polyreactivity (PSR sort gate)” value was “low polyreactivity”. With “QVQLVESGGGLVQAGGSLRLSCAASGSILDVYAMGWYRQAPGKERELVATISWSGGDTYYADSVKGRFTISRDNAKNTVYLQMNSLKPEDTAVYYCNDVFSYYGYDYWGQGTQVTVSS” the “polyreactivity (PSR sort gate)” value was “low polyreactivity”. For “QVQLVESGGGLVQAGGSLRLSCAASGSILDWNAMGWYRQAPGKVRELDAAITNGVSTHYADSVKGRFTISRDNAKNTVYFQMNSLKPEETAVYYCAKAFWWRPEWWLRSARGSWGQGTQVTVSS”, the “polyreactivity (PSR sort gate)” value was “low polyreactivity”. With “QVQLVESGGGLVQAGGSLRLSCAASGSILEPYAMGWYRQAPGKERELVAAISSSGGSTRYADSVKWRFTISRDNAKNTVYLQMNSLKPEDTAVYYCAARFRAKFNYWGQGTQVTVSS” the “polyreactivity (PSR sort gate)” value was “high polyreactivity”. In the case of “QVQLVESGGGLVQAGGSLRLSCAASGSILEVYAMGWYRQAPGKERELVAAISDGDSTYYADSVKGRFTISRDNAKNTVYLQMNSLKPEDTAVYYCAAEFVGTLWWYDYWGQGTQVTVSS”, the “polyreactivity (PSR sort gate)” value is reported as “low polyreactivity”. For “QVQLVESGGGLVQAGGSLRLSCAASGSILFKNAMGWYRQAPGKERELVAAISTSGGRTYYADSVKGRFTISRDNAKNTVSLQMNSLKPEDTAVYYCAAVYPRQVSQVWRDDYWGQGTQVTVSS”, the “polyreactivity (PSR sort gate)” value was “high polyreactivity”. In the case of “QVQLVESGGGLVQAGGSLRLSCAASGSILGANVMGWYRQAPGKERELVASISKSGGNTFYADSVKGRFTISRDNAKNTVYLQMNSLKPEDTAVYYCAKDVLGGQITDGVGNDYWGQGTQVTVSS”, the “polyreactivity (PSR sort gate)” value is reported as “low polyreactivity”. For “QVQLVESGGGLVQAGGSLRLSCAASGSILGGNTMGGYRQAPGKERELVAAISRSGGSTYYADSVKGRLTISRDNAKNTVYLQMNSLKPEDTAVYYCNRKQAGHAQGYDYWGQGTQVTVSS”, the “polyreactivity (PSR sort gate)” value was “high polyreactivity”. For “QVQLVESGGGLVQAGGSLRLSCAASGSILGHYAMGWYRQAPGKERELVAAISSSGGSTYYADSVKGRFTISRDNAKNTVYLQMNSLKPEDTAVYYCAADRGRPFPRGTGYYYWGQGTQVTVSS”, the “polyreactivity (PSR sort gate)” value was “high polyreactivity”. With “QVQLVESGGGLVQAGGSLRLSCAASGSILGHYAMGWYRQAPGTERELVAAISRGGSTTYYADSVKGRFTISRDNAKNTVYFQMNSLKPEDTAVYYCAARSASKMDYWGQGTQVNVSS” the “polyreactivity (PSR sort gate)” value was “high polyreactivity”. With “QVQLVESGGGLVQAGGSLRLSCAASGSILGINVMGWYRPAPGKERELVAAISRRGGSTYYADSVKGRFTISRDNAKNTVYLQMNSLKPEDTAVYYCAATRTARTMGYWGQGTQVTVSS” the “polyreactivity (PSR sort gate)” value was “high polyreactivity”. With “QVQLVESGGGLVQAGGSLRLSCAASGSILGPYAMGWYRQAPGKERELVAAISQSGARTYYADSVKGRFTISRDNAKNTVYLQMNSLKPEDTAVYYCAAQSRKGGWSAYYYWGQGTQVTVSS” the “polyreactivity (PSR sort gate)” value was “high polyreactivity”. For “QVQLVESGGGLVQAGGSLRLSCAASGSILGQNGMGWYRQAPWKERELVAGITWSGGSTYYADSVKGRFTISRDNAKNTVYLQMNSLKPEDTAVYYCARRGYYAPYYYWGQGTQVTVSS”, the “polyreactivity (PSR sort gate)” value was “high polyreactivity”.
